According to US20250154198A1, “PEPTIDE INHIBITORS OF INTERLEUKIN-23 RECEPTOR” (Zealand Pharma A/S, priority 2021, published 2025):
Where two headings read alike, the source gives them in different places. *1 amine or outer side, *2 acyl side, *3 side chain or, on linkers, in order; H or OH if unused. Bridges are numbered along the chain shown (N, C = ends). [ ]: non-standard residue; d: D form. 4‑Aminomethyl‑phenylacetyl = 4-aminomethyl-phenylacetyl unit, its amine closes the lactam, O=C(Cc1ccc(CN[*:1])cc1)[*:2]; 2Nal = N[C@@H](Cc1ccc2ccccc2c1)C(=O)O; AEF = NCCOc1ccc(C[C@H](N)C(=O)O)cc1; αMeL = CC(C)C[C@](C)(N)C(=O)O; CH2COCH2 = O=C(C[*:1])C[*:2]; αMeK = C[C@](N)(CCCCN)C(=O)O; 3Amb = NCc1cccc(C(=O)O)c1

T1: human IL-23R endogenously expressed on DB cells (CRL-2289) (human, UniProt Q5VWK5 24-629)
T1 sequence (looked up): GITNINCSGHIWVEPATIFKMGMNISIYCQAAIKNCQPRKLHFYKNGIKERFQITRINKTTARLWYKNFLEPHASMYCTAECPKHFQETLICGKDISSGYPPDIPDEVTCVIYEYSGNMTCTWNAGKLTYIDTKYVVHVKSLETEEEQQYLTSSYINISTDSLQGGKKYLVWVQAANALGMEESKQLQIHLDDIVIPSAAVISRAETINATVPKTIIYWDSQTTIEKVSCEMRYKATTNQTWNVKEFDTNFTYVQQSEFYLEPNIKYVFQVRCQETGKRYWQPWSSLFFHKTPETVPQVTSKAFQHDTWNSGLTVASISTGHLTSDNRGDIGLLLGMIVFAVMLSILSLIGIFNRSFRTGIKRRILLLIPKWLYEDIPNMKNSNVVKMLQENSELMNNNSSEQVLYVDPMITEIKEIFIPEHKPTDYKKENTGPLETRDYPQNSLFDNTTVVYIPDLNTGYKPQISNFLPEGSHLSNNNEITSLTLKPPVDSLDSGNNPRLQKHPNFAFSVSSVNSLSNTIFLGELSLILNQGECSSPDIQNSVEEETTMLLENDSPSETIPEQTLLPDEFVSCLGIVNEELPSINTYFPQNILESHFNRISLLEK

T2: Nluc-IL23R fusion protein (human, UniProt Q5VWK5 22-629)
T2 construct: range 22-629; Stably expressed in HEK293 cells; also called hIL-23R; human IL-23R fused to a Nanoluc luciferase enzyme; not shown: Nanoluc luciferase (Promega N1371 plasmid) at the N-terminus
T2 sequence (looked up): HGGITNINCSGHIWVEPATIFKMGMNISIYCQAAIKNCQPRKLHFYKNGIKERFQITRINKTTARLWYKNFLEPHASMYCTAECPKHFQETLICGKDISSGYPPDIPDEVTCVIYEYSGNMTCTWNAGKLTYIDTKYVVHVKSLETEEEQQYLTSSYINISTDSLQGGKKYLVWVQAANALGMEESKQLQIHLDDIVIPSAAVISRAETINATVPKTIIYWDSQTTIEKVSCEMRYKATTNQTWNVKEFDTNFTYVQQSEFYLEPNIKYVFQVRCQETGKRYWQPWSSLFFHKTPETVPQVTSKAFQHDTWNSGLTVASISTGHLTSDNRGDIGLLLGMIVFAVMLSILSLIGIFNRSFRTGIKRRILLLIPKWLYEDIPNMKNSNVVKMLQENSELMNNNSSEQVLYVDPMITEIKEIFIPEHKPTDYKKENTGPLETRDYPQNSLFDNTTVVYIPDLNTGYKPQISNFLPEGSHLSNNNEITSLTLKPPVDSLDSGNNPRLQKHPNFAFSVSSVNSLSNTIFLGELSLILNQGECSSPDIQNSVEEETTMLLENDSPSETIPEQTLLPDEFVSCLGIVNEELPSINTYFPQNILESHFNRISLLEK

B1: Compound 52 (peptide)
peptide: [4‑Aminomethyl‑phenylacetyl]SCWQC[AEF][2Nal][αMeL]ER-NH2
modifications: lactam N-10; linker 3-6 via CH2COCH2
SMILES: CC(C)C[C@]1(C)NC(=O)[C@H](Cc2ccc3ccccc3c2)NC(=O)[C@H](Cc2ccc(OCCN)cc2)NC(=O)[C@@H]2CSCC(=O)CSC[C@H](NC(=O)[C@H](CO)NC(=O)Cc3ccc(cc3)CNC(=O)CC[C@@H](C(=O)N[C@@H](CCCNC(=N)N)C(N)=O)NC1=O)C(=O)N[C@@H](Cc1c[nH]c3ccccc13)C(=O)N[C@@H](CCC(N)=O)C(=O)N2
B2: Compound 58 (peptide)
peptide: Ac-DESCWQCW[2Nal][αMeL]KENG-NH2
modifications: lactam 2-11; linker 4-7 via CH2COCH2
SMILES: CC(=O)N[C@@H](CC(=O)O)C(=O)N[C@H]1CCC(=O)NCCCC[C@@H](C(=O)N[C@@H](CCC(=O)O)C(=O)N[C@@H](CC(N)=O)C(=O)NCC(N)=O)NC(=O)[C@](C)(CC(C)C)NC(=O)[C@H](Cc2ccc3ccccc3c2)NC(=O)[C@H](Cc2c[nH]c3ccccc23)NC(=O)[C@@H]2CSCC(=O)CSC[C@H](NC(=O)[C@H](CO)NC1=O)C(=O)N[C@@H](Cc1c[nH]c3ccccc13)C(=O)N[C@@H](CCC(N)=O)C(=O)N2
B3: Compound 59 (peptide)
peptide: Ac-DESCWQCW[2Nal][αMeL]KNG-NH2
modifications: lactam 2-11; linker 4-7 via CH2COCH2
SMILES: CC(=O)N[C@@H](CC(=O)O)C(=O)N[C@H]1CCC(=O)NCCCC[C@@H](C(=O)N[C@@H](CC(N)=O)C(=O)NCC(N)=O)NC(=O)[C@](C)(CC(C)C)NC(=O)[C@H](Cc2ccc3ccccc3c2)NC(=O)[C@H](Cc2c[nH]c3ccccc23)NC(=O)[C@@H]2CSCC(=O)CSC[C@H](NC(=O)[C@H](CO)NC1=O)C(=O)N[C@@H](Cc1c[nH]c3ccccc13)C(=O)N[C@@H](CCC(N)=O)C(=O)N2
B4: Compound 60 (peptide)
peptide: Ac-DESCWQCW[2Nal][αMeL]KG-NH2
modifications: lactam 2-11; linker 4-7 via CH2COCH2
SMILES: CC(=O)N[C@@H](CC(=O)O)C(=O)N[C@H]1CCC(=O)NCCCC[C@@H](C(=O)NCC(N)=O)NC(=O)[C@](C)(CC(C)C)NC(=O)[C@H](Cc2ccc3ccccc3c2)NC(=O)[C@H](Cc2c[nH]c3ccccc23)NC(=O)[C@@H]2CSCC(=O)CSC[C@H](NC(=O)[C@H](CO)NC1=O)C(=O)N[C@@H](Cc1c[nH]c3ccccc13)C(=O)N[C@@H](CCC(N)=O)C(=O)N2
B5: Compound 61 (peptide)
peptide: Ac-DESCWQCW[2Nal][αMeK]KENG-NH2
modifications: lactam 2-11; linker 4-7 via CH2COCH2
SMILES: CC(=O)N[C@@H](CC(=O)O)C(=O)N[C@H]1CCC(=O)NCCCC[C@@H](C(=O)N[C@@H](CCC(=O)O)C(=O)N[C@@H](CC(N)=O)C(=O)NCC(N)=O)NC(=O)[C@](C)(CCCCN)NC(=O)[C@H](Cc2ccc3ccccc3c2)NC(=O)[C@H](Cc2c[nH]c3ccccc23)NC(=O)[C@@H]2CSCC(=O)CSC[C@H](NC(=O)[C@H](CO)NC1=O)C(=O)N[C@@H](Cc1c[nH]c3ccccc13)C(=O)N[C@@H](CCC(N)=O)C(=O)N2

Tests used:
[1] = molecular target: T1, human IL-23R endogenously expressed on …; assay: cell-based or functional assay
[2] = molecular target: T2, Nluc-IL23R fusion protein; assay: BRET displacement of TAMRA-labelled peptide, Nluc-IL23R membranes
[3] = molecular target: T2, Nluc-IL23R fusion protein; assay: as above; remark: listed apart in the source

IC50 (pSTAT3) [1] | Ki [2] | Ki [3] | Binder
29.4 nM | 2.31 nM | – | [3Amb]SCWQC[AEF][2Nal][αMeL]E[dR]-NH2 (lactam N-10; linker 3-6 via CH2COCH2) [Compound 41]
7.85 nM | 0.0475 nM | – | B1
597 nM | – | 201 nM | B2
297 nM | – | 139 nM | B3
666 nM | – | 212 nM | B4
> 1 µM | – | 436 nM | B5
